One molecule from publication PMC5469197, “ANGUSTIFOLIA, a Plant Homolog of CtBP/BARS Localizes to Stress Granules and Regulates Their Formation” (Frontiers in Plant Science, 2017) can be followed below.

Holding throughout (assay): co-IP; LUMIER in HEK293TN cells: Prot-A fusion co-transfected with Renilla luciferase fusion (AN always the luciferase fusion with the interactors); luciferase activity before (input) and after pulldown; percentage pulldown = pulldown/input x 100; empty vectors as negative control; positive if more than two times the background
Common to all, as to details: partners not purified

Assay [1] concerns the target T1, RNA BINDING PROTEIN 47C (RBP47C), Prot-A fusion (Arabidopsis thaliana, UniProt Q9SX79 1-432).
T1 construct: RBP47C, Arabidopsis thaliana, AT1G47490; CDS amplified from Col-0 cDNA; source: HEK293TN cells, transfected; not shown: Protein A (Staphylococcus aureus), N-terminal, kept
T1 sequence (looked up): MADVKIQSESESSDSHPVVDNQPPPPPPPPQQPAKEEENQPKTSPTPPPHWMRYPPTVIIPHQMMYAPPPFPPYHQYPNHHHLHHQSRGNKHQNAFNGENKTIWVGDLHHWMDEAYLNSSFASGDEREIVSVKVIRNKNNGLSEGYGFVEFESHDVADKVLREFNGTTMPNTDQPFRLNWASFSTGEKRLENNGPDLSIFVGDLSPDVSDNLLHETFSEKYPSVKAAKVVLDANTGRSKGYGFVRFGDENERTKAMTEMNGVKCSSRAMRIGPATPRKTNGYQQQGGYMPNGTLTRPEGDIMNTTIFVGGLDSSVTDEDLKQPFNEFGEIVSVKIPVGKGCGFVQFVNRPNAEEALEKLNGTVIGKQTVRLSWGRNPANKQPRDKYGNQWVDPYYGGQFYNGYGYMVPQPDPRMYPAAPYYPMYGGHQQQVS

The target of assay [2] is T2, KH DOMAIN-CONTAINING PROTEIN (AT2G38610), Prot-A fusion (Arabidopsis thaliana, UniProt Q9ZVI3 1-286).
T2 construct: KH domain-containing protein, Arabidopsis thaliana, AT2G38610; CDS amplified from Col-0 cDNA; source: HEK293TN cells, transfected; not shown: Protein A (Staphylococcus aureus), N-terminal, kept
T2 sequence (looked up): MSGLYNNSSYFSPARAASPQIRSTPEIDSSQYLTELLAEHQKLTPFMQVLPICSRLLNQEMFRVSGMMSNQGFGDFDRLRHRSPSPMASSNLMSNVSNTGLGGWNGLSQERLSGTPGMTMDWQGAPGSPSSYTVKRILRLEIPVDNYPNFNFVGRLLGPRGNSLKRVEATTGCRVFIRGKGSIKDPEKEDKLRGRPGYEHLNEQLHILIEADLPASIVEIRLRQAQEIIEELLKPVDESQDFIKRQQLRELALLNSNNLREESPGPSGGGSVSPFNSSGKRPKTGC

Assay [3] concerns the target T3, …ONALLY CONTROLLED TUMOR PROTEIN (TCTP), Prot-A fusion (Arabidopsis thaliana, UniProt P31265 1-168).
T3 construct: Translationally controlled tumor protein, Arabidopsis thaliana, AT3G16640; CDS amplified from Col-0 cDNA; source: HEK293TN cells, transfected; not shown: Protein A (Staphylococcus aureus), N-terminal, kept
T3 sequence (looked up): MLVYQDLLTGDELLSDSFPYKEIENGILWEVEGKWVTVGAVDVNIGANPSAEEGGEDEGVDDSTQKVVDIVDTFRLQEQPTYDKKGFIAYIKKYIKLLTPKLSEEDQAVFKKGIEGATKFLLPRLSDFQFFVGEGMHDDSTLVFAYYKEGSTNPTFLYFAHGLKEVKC

Assay [4] deals with T4, EIF (ISO) 4E, Prot-A fusion (Arabidopsis thaliana, UniProt O04663 1-198).
T4 construct: EIF(iso)4E, Arabidopsis thaliana, AT5G35620; CDS amplified from Col-0 cDNA; source: HEK293TN cells, transfected; not shown: Protein A (Staphylococcus aureus), N-terminal, kept
T4 sequence (looked up): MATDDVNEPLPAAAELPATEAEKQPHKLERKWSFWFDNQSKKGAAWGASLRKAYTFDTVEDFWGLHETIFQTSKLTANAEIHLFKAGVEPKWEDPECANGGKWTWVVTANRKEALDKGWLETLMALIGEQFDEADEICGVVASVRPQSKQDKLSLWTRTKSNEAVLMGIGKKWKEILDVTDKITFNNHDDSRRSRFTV

The target in assay [5] is T5, GLYCINE-RICH RNA-BINDING PROTEIN 2 (GRP2), Prot-A fusion (Arabidopsis thaliana, UniProt Q9SVM8 35-158).
T5 construct: CDS amplified from Col-0 cDNA; source: HEK293TN cells, transfected; not shown: Protein A (Staphylococcus aureus), N-terminal, kept
T5 sequence (looked up): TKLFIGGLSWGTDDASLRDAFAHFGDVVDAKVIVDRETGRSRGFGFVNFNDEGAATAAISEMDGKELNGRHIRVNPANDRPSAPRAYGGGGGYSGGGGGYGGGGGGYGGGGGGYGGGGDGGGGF

B1: AN, Renilla luciferase fusion (LUMIER) (natural protein, Arabidopsis thaliana, UniProt O23702 1-636, looked up)
chain: MSKIRSSATMPHRDQPSPASPHVVTLNCIEDCALEQDSLAGVAGVEYVPLSRIADGKIESATAVLLHSLAYLPRAAQRRLRPHQLILCLGSADRAVDSTLAADLGLRLVHVDTSRAEEIADTVMALILGLLRRTHLLSRHALSASGWLGSLQPLCRGMRRCRGMVLGIVGRSVSARYLASRSLAFKMSVLYFDVPEGDEERIRPSRFPRAARRMDTLNDLLAASDVISLHCALTNDTVQILNAECLQHIKPGAFLVNTGSCQLLDDCAVKQLLIDGTIAGCALDGAEGPQWMEAWVKEMPNVLILPRSADYSEEVWMEIREKAISILHSFFLDGVIPSNTVSDEEVEESEASEEEEQSPSKHEKLAIVESTSRQQGESTLTSTEIVRREASELKESLSPGQQHVSQNTAVKPEGRRSRSGKKAKKRHSQQKYMQKTDGSSGLNEESTSRRDDIAMSDTEEVLSSSSRCASPEDSRSRKTPLEVMQESSPNQLVMSSKKFIGKSSELLKDGYVVALYAKDLSGLHVSRQRTKNGGWFLDTLSNVSKRDPAAQFIIAYRNKDTVGLRSFAAGGKLLQINRRMEFVFASHSFDVWESWSLEGSLDECRLVNCRNSSAVLDVRVEILAMVGDDGITRWID
notes: ANGUSTIFOLIA (AN), Arabidopsis thaliana, AT1G01510; CDS amplified from Col-0 cDNA; in the dimerisation test the second copy must have been the N-terminal protein A fusion (surmised from the LUMIER format); also called wild-type AN; source: HEK293TN cells, transfected; not shown: Renilla reniformis luciferase, N-terminal, kept
With B1, the “fold change from background” value came to 4.97 fold in assay [1]; 2.93 fold in assay [2]; 3.12 fold in assay [3]; 4.09 fold in assay [4]; 2.52 fold in assay [5]. Further, the percentage pulldown in assay [1] turned out to be 0.46%; in assay [2], 0.28%; in assay [3] it was 0.28%; in assay [4], 0.39%; in assay [5] it was 0.24%.
